Sequences and labels used below:
B1: S. cerevisiae Abp1 (full length; SH3 domain 535-592 mutated) / Hua2 (parent complex)
chain 1: MALEPIDYTTHSREIDAEYLKIVRGSDPDTTWLIISPNAKKEYEPESTGSSFHDFLQLFDETKVQYGLARVSPPGSDVEKIIIIGWCPDSAPLKTRASFAANFAAVANNLFKGYHVQVTARDEDDLDENELLMKISNAAGARYSIQTSSKQQGKASTPPVKKSFTPSKSPAPVSKKEPVKTPSPAPAAKISSRVNDNNDDDDWNEPELKERDFDQAPLKPNQSSYKPIGKIDLQKVIAEEKAKEDPRLVQKPTAAGSKIDPSSDIANLKNESKLKRDSEFNSFLGTTKPPSMTESSLKNDDDKVIKGFRNEKSPAQLWAERKAKQNSGNAETKAEAPKPEVPEDEPEGEPDVKDLKSKFEGLAASEKEEEEMENKFAPPPKKSEPTIISPKPFSKPQEPVKAEEAEQPKTDYKKIGNPLPGMHIEADNEEEPEENDDDWDDDEDEAAQPPLPSRNVASGAPVQKEEPEQEEIAPSLPSRNSIPAPKQEEAPEQAPEEEIEEEAEEAAPQLPSRSSAAPPPPPRRATPEKKPKENPWATAEYDYDAAEDNELTFVENDKIINIEFVDDDWWLGELEKDGSKGLFPSNYVSLGN
chain 2: MQQTKFGKMYLDHDSVVEYSEDEIVEADRITLGYKKRLSMIENQMRHLLEDFSLDVQQIEPILADLQKYYDAFLQLLQKRNKSLQCKRSTHQPVPSPMNSQTSTNAKVNLSGKLMKFQLNSVQKFDEENILRILQNKIEFEHYFQIDKGKKQKVLLLAVYQCLNGPTRLHKVLNIEGIIHNNSIRTILGKQVSSSKWTVFLYDVKLVLLAHRQDVPNLETSKMIVRYGDLFPCALYFKDHTAY

Variants of B1 are the subject of this assay. In words: DHFR protein-fragment complementation in yeast (Abp1-DHFR F[1,2] x partner-DHFR F[3]), deep mutational scanning, second methotrexate selection vs reference; S. cerevisiae, DHFR-PCA selection in liquid with methotrexate at 30 C, two 72 h selections (the score uses the second); reference = the pre-selection culture.
For chain 1 E547S, the screen value is -2.1 DMS score: mean over two replicates of log2(f_test/f_ref + 0.5)/ln 2, minus the synonymous-codon median (not a log2 ….
Under chain 1 E547Q stands -2.26 DMS score: mean over two replicates of log2(f_test/f_ref + 0.5)/ln 2, minus the synonymous-codon median (not a log2 …; under chain 1 E547H, -2.24 DMS score: mean over two replicates of log2(f_test/f_ref + 0.5)/ln 2, minus the synonymous-codon median (not a log2 ….
The result for chain 1 E547K reads -2.17 DMS score: mean over two replicates of log2(f_test/f_ref + 0.5)/ln 2, minus the synonymous-codon median (not a log2 ….
The result for chain 1 D568H reads -2.63 DMS score: mean over two replicates of log2(f_test/f_ref + 0.5)/ln 2, minus the synonymous-codon median (not a log2 …; that for chain 1 D568Y, -2.08 DMS score: mean over two replicates of log2(f_test/f_ref + 0.5)/ln 2, minus the synonymous-codon median (not a log2 …; that for chain 1 D568S, -2.97 DMS score: mean over two replicates of log2(f_test/f_ref + 0.5)/ln 2, minus the synonymous-codon median (not a log2 ….
As to chain 1 D568N, the screen value was -2.05 DMS score: mean over two replicates of log2(f_test/f_ref + 0.5)/ln 2, minus the synonymous-codon median (not a log2 ….
Under chain 1 N586G stands 2.37 DMS score: mean over two replicates of log2(f_test/f_ref + 0.5)/ln 2, minus the synonymous-codon median (not a log2 …; under chain 1 N586Q, -1.03 DMS score: mean over two replicates of log2(f_test/f_ref + 0.5)/ln 2, minus the synonymous-codon median (not a log2 …; under chain 1 N586S, 2 DMS score: mean over two replicates of log2(f_test/f_ref + 0.5)/ln 2, minus the synonymous-codon median (not a log2 ….
Under chain 1 N586C stands 2.04 DMS score: mean over two replicates of log2(f_test/f_ref + 0.5)/ln 2, minus the synonymous-codon median (not a log2 …; under chain 1 N586V, 1.04 DMS score: mean over two replicates of log2(f_test/f_ref + 0.5)/ln 2, minus the synonymous-codon median (not a log2 ….
For the variant chain 1 N586A, the screen value is 1.82 DMS score: mean over two replicates of log2(f_test/f_ref + 0.5)/ln 2, minus the synonymous-codon median (not a log2 ….
Turning to chain 1 N586T, the screen value was 1.83 DMS score: mean over two replicates of log2(f_test/f_ref + 0.5)/ln 2, minus the synonymous-codon median (not a log2 ….
Under chain 1 Y543H stands -0.676 DMS score: mean over two replicates of log2(f_test/f_ref + 0.5)/ln 2, minus the synonymous-codon median (not a log2 ….
For the variant chain 1 Y543W, the screen value was 0.254 DMS score: mean over two replicates of log2(f_test/f_ref + 0.5)/ln 2, minus the synonymous-codon median (not a log2 ….
Under chain 1 K576T stands -0.475 DMS score: mean over two replicates of log2(f_test/f_ref + 0.5)/ln 2, minus the synonymous-codon median (not a log2 ….
Under chain 1 F564E stands 0.712 DMS score: mean over two replicates of log2(f_test/f_ref + 0.5)/ln 2, minus the synonymous-codon median (not a log2 ….
The result for chain 1 F564P reads -2.61 DMS score: mean over two replicates of log2(f_test/f_ref + 0.5)/ln 2, minus the synonymous-codon median (not a log2 …; that for chain 1 F564K, -2.62 DMS score: mean over two replicates of log2(f_test/f_ref + 0.5)/ln 2, minus the synonymous-codon median (not a log2 …; that for chain 1 F564R, -2.96 DMS score: mean over two replicates of log2(f_test/f_ref + 0.5)/ln 2, minus the synonymous-codon median (not a log2 ….
Consider chain 1 F564M, for which the screen value is 0.421 DMS score: mean over two replicates of log2(f_test/f_ref + 0.5)/ln 2, minus the synonymous-codon median (not a log2 ….
The result for chain 1 W569Q reads -2.81 DMS score: mean over two replicates of log2(f_test/f_ref + 0.5)/ln 2, minus the synonymous-codon median (not a log2 …; that for chain 1 N556M, -0.751 DMS score: mean over two replicates of log2(f_test/f_ref + 0.5)/ln 2, minus the synonymous-codon median (not a log2 ….
Under chain 1 D567A stands -2.23 DMS score: mean over two replicates of log2(f_test/f_ref + 0.5)/ln 2, minus the synonymous-codon median (not a log2 ….
Regarding chain 1 I560M, the screen value is 0.263 DMS score: mean over two replicates of log2(f_test/f_ref + 0.5)/ln 2, minus the synonymous-codon median (not a log2 ….
Under chain 1 I560C stands 0.328 DMS score: mean over two replicates of log2(f_test/f_ref + 0.5)/ln 2, minus the synonymous-codon median (not a log2 …; under chain 1 N592W, -0.139 DMS score: mean over two replicates of log2(f_test/f_ref + 0.5)/ln 2, minus the synonymous-codon median (not a log2 …; under chain 1 N592S, 0.526 DMS score: mean over two replicates of log2(f_test/f_ref + 0.5)/ln 2, minus the synonymous-codon median (not a log2 ….
The result for chain 1 N592E reads 1.16 DMS score: mean over two replicates of log2(f_test/f_ref + 0.5)/ln 2, minus the synonymous-codon median (not a log2 …; that for chain 1 N592G, 0.394 DMS score: mean over two replicates of log2(f_test/f_ref + 0.5)/ln 2, minus the synonymous-codon median (not a log2 ….
Under chain 1 A546G stands 0.413 DMS score: mean over two replicates of log2(f_test/f_ref + 0.5)/ln 2, minus the synonymous-codon median (not a log2 …; under chain 1 A546V, -0.179 DMS score: mean over two replicates of log2(f_test/f_ref + 0.5)/ln 2, minus the synonymous-codon median (not a log2 …; under chain 1 T538L, 0.677 DMS score: mean over two replicates of log2(f_test/f_ref + 0.5)/ln 2, minus the synonymous-codon median (not a log2 ….
Regarding chain 1 T538N, the screen value is -0.471 DMS score: mean over two replicates of log2(f_test/f_ref + 0.5)/ln 2, minus the synonymous-codon median (not a log2 ….
As for chain 1 T538A, the screen value is -0.987 DMS score: mean over two replicates of log2(f_test/f_ref + 0.5)/ln 2, minus the synonymous-codon median (not a log2 ….
Under chain 1 T538I stands 0.252 DMS score: mean over two replicates of log2(f_test/f_ref + 0.5)/ln 2, minus the synonymous-codon median (not a log2 ….
Consider chain 1 P535E, for which the screen value was 1.04 DMS score: mean over two replicates of log2(f_test/f_ref + 0.5)/ln 2, minus the synonymous-codon median (not a log2 ….
The result for chain 1 P535D reads 0.473 DMS score: mean over two replicates of log2(f_test/f_ref + 0.5)/ln 2, minus the synonymous-codon median (not a log2 ….
Under chain 1 P535S stands 0.342 DMS score: mean over two replicates of log2(f_test/f_ref + 0.5)/ln 2, minus the synonymous-codon median (not a log2 …; under chain 1 D544T, 0.786 DMS score: mean over two replicates of log2(f_test/f_ref + 0.5)/ln 2, minus the synonymous-codon median (not a log2 …; under chain 1 D544F, 0.632 DMS score: mean over two replicates of log2(f_test/f_ref + 0.5)/ln 2, minus the synonymous-codon median (not a log2 ….
Under chain 1 D544N stands -0.362 DMS score: mean over two replicates of log2(f_test/f_ref + 0.5)/ln 2, minus the synonymous-codon median (not a log2 …; under chain 1 D544W, 0.0871 DMS score: mean over two replicates of log2(f_test/f_ref + 0.5)/ln 2, minus the synonymous-codon median (not a log2 ….
For chain 1 D544Y, the screen value was -0.602 DMS score: mean over two replicates of log2(f_test/f_ref + 0.5)/ln 2, minus the synonymous-codon median (not a log2 ….
The result for chain 1 D544K reads 1.68 DMS score: mean over two replicates of log2(f_test/f_ref + 0.5)/ln 2, minus the synonymous-codon median (not a log2 …; that for chain 1 D544V, 0.356 DMS score: mean over two replicates of log2(f_test/f_ref + 0.5)/ln 2, minus the synonymous-codon median (not a log2 ….
The result for chain 1 D544H reads 0.503 DMS score: mean over two replicates of log2(f_test/f_ref + 0.5)/ln 2, minus the synonymous-codon median (not a log2 ….
Under chain 1 D544Q stands 0.66 DMS score: mean over two replicates of log2(f_test/f_ref + 0.5)/ln 2, minus the synonymous-codon median (not a log2 …; under chain 1 D544P, -0.888 DMS score: mean over two replicates of log2(f_test/f_ref + 0.5)/ln 2, minus the synonymous-codon median (not a log2 …; under chain 1 S589R, 1.04 DMS score: mean over two replicates of log2(f_test/f_ref + 0.5)/ln 2, minus the synonymous-codon median (not a log2 ….
On to chain 1 S589G, for which the screen value was 0.273 DMS score: mean over two replicates of log2(f_test/f_ref + 0.5)/ln 2, minus the synonymous-codon median (not a log2 ….
As for chain 1 S589H, the screen value is 0.128 DMS score: mean over two replicates of log2(f_test/f_ref + 0.5)/ln 2, minus the synonymous-codon median (not a log2 ….
For chain 1 S589N, the screen value was 1.22 DMS score: mean over two replicates of log2(f_test/f_ref + 0.5)/ln 2, minus the synonymous-codon median (not a log2 ….
The result for chain 1 S589L reads 0.723 DMS score: mean over two replicates of log2(f_test/f_ref + 0.5)/ln 2, minus the synonymous-codon median (not a log2 …; that for chain 1 S589T, 0.254 DMS score: mean over two replicates of log2(f_test/f_ref + 0.5)/ln 2, minus the synonymous-codon median (not a log2 …; that for chain 1 S589F, -0.753 DMS score: mean over two replicates of log2(f_test/f_ref + 0.5)/ln 2, minus the synonymous-codon median (not a log2 ….
The result for chain 1 S589I reads 0.802 DMS score: mean over two replicates of log2(f_test/f_ref + 0.5)/ln 2, minus the synonymous-codon median (not a log2 ….
Under chain 1 S589Q stands 0.838 DMS score: mean over two replicates of log2(f_test/f_ref + 0.5)/ln 2, minus the synonymous-codon median (not a log2 …; under chain 1 S589D, 0.916 DMS score: mean over two replicates of log2(f_test/f_ref + 0.5)/ln 2, minus the synonymous-codon median (not a log2 ….
Regarding chain 1 S585P, the screen value is -2.72 DMS score: mean over two replicates of log2(f_test/f_ref + 0.5)/ln 2, minus the synonymous-codon median (not a log2 ….
The result for chain 1 S585T reads -0.67 DMS score: mean over two replicates of log2(f_test/f_ref + 0.5)/ln 2, minus the synonymous-codon median (not a log2 …; that for chain 1 S585C, 1.03 DMS score: mean over two replicates of log2(f_test/f_ref + 0.5)/ln 2, minus the synonymous-codon median (not a log2 ….
The result for chain 1 S585G reads -1.85 DMS score: mean over two replicates of log2(f_test/f_ref + 0.5)/ln 2, minus the synonymous-codon median (not a log2 …; that for chain 1 S585M, 0.746 DMS score: mean over two replicates of log2(f_test/f_ref + 0.5)/ln 2, minus the synonymous-codon median (not a log2 …; that for chain 1 D542K, -0.627 DMS score: mean over two replicates of log2(f_test/f_ref + 0.5)/ln 2, minus the synonymous-codon median (not a log2 ….
The result for chain 1 D542F reads -0.772 DMS score: mean over two replicates of log2(f_test/f_ref + 0.5)/ln 2, minus the synonymous-codon median (not a log2 ….
As to chain 1 D542N, the screen value is 0.0633 DMS score: mean over two replicates of log2(f_test/f_ref + 0.5)/ln 2, minus the synonymous-codon median (not a log2 ….
As to chain 1 I562L, the screen value is -0.495 DMS score: mean over two replicates of log2(f_test/f_ref + 0.5)/ln 2, minus the synonymous-codon median (not a log2 ….
For chain 1 A537G, the screen value is 0.922 DMS score: mean over two replicates of log2(f_test/f_ref + 0.5)/ln 2, minus the synonymous-codon median (not a log2 ….
The result for chain 1 V565N reads -0.352 DMS score: mean over two replicates of log2(f_test/f_ref + 0.5)/ln 2, minus the synonymous-codon median (not a log2 ….
The result for chain 1 V565Q reads -0.327 DMS score: mean over two replicates of log2(f_test/f_ref + 0.5)/ln 2, minus the synonymous-codon median (not a log2 ….
Consider chain 1 V565H, for which the screen value was -1.58 DMS score: mean over two replicates of log2(f_test/f_ref + 0.5)/ln 2, minus the synonymous-codon median (not a log2 ….
Under chain 1 V565P stands -0.0718 DMS score: mean over two replicates of log2(f_test/f_ref + 0.5)/ln 2, minus the synonymous-codon median (not a log2 ….

The record behind these values is article PMC7954794 (2021).
